# Test: label from the status in PepcDB records
row,Sequence,protein production
1,MNAIGIVGTGAMGRGIAQIAAQAGLRVRLFDASPQAVEAARAALADTLARLAAKGRLTADQADAALARLMPAAALAELADCDLVVEAIVENLEAKRDLFRQLEAIVGPETILASNTSSLSITAIAAACRRPERVAGFHFFNPVPLMKVVEVIAGLRSAPAACDALAALAGRMGHAAVRCTDMPGFIVNHAGRGMNTEGLRVVQEGVTAFADVDAVMREQAGFRMGPFELMDLTGLDVSHPVMESIYRQFYDEPRYRPSRITAVRLAGGLLGRKTGEGFYRYADGQKPVPPEAAAPAARPKSVWVSRAHAAGHTAAQRLLLDLCVTPEDGAWPSAEALIVVTPRGLDATAAAVAEGLDGRRTVALDTLYPFAATRRRTLMTTPATDPAHRDAAHGLFAADGVPVTVIRDSGGFVAQRIVACIVNIACDIAQQRIATPADIDLAVTLGLGYPQGPLALGDTLGAGAVLEVLQNLTTLYGDPRYRPSPWLLRRARLGLSLLTPDA,failed
2,MNAKIIASLAFTSMFSLSTLLSPAHAEEQEKALNFGIISTESQQNLKPQWTPFLQDMEKKLGVKVNAFFAPDYAGIIQGMRFNKVDIAWYGNLSAMEAVDRANGQVFAQTVAADGSPGYWSVLIVNKDSPINNLNDLLAKRKDLTFGNGDPNSTSGFLVPGYYVFAKNNISASDFKRTVNAGHETNALAVANKQVDVATNNTENLDKLKTSAPEKLKELKVIWKSPLIPGDPIVWRKNLSETTKDKIYDFFMNYGKTPEEKAVLERLGWAPFRASSDLQLVPIRQLALFKEMQGVKSNKGLNEQDKLAKTTEIQAQLDDLDRLNNALSAMSSVSKAVQ,failed
3,MNAKSRPSRKLLKGAVIGPAQLMADQPFSVIRAVSRRSDRDHVGVLAAGVAFFSLLASFPALVTLITLYGLFTGPQEAVRQIAEAGVYLPRGVHDLLAEHLPRLAQASPGSLGLGAITSLLFSIWSASRGMGAMVDGVDIAYQVGDGRGFLRKSILVVGLTLAGLVVSAIALPLIVGLPALFDRLPLPLEIRWALALARWPLLFALVLGALAVLFRYAPDRENPRWRWVTPGALAAATLWILASGGLSLYVGLVSSYDQTYGTLAGVVVAMMWLYLASYAVLLGAEINAELEDRGMERIKKDQAAAKAAVARA,failed
4,MNALALGAKSFPIFWHYWNPIWGYYLSRNVMRPISQFLPMWLAVLVTFLVSGALHDLAIALVKWQAMFFFTPWFGIMGVIVIASNKYGLSYGALPWIMRAMINLLFILSSFSLTELTQGLLRLSA,failed
5,MNALKNLSLILLLSLAFTGCHNKSSKINDFNLLLYAPEYASGFDIKGAGGKESVLITVRNPWQGADSVTTWLFIVRNGEEVPEGFAGQVLKGDAKRIVAMSSTHIAMLDAIGEVRCITGVSGIDYISNPDIQARRDSIGDVGYEGNINYELLLSLDPDLVLLYGVNGASAMESKLEELDIPFMYVGDYLEESPLGKAEWMVVLSEVTGKREKGEKAFAAIPVRYNALKKKVADSTLGTPSVMLNVPYGDSWFMPSTQSYVARLITDAGGRYIYQKNTGNASIPIDLEEAYLLASDADMWLNVGMANSLDDLKASCPKFTDTRCFKNGEVYNNNARTNTAGGNDYYESAVVNPDIVLRDLVKIFHPELVQEECVYYKQLK,failed
6,MNARLENLMQWLKEKNVEAAFLTSTPNVFYMTNIHCEPHERLLGMFVFQEKEPILICPKMEEGQARNAGWAHEIIGFTDTDRPWDMIAKAIKDRGINANAVAIEKEHLNVERYEELTKLFPNAAFTSAEEKVRELRLIKDEKELSILREAAKMADYAVEVGVNAIKEDRSELEVLAIIEHELKTEGIHKMSFDTMVLAGANSALPHGIPGANKMKRGDFVLFDLGVIIDGYCSDITRTVAFGDISEEQTRIYNTVLAGQLQAVEACKPGVTLGAIDNAARSVIADAGYGDFFPHRLGHGLGISVHEYPDVKAGNESPLKEGMVFTIEPGIYVPNVGGVRIEDDIYITKDGSEILTKFPKELQFVK,failed
7,MNATHEALAIRARPRPASAPSAVLTLAWRAMLKIKHVPFQLFDVTVTPIMFTLLFTFIFGGALAGSPRQYVQYLVPGVLVQTVLFITVYTGVGLNSDIRKGLYDRFRSLPMWQPAPLLGALAGDVFRYSVAGGVILVVGFILGFRPQGGAPGVLAAMALVLVFSFALSWLWIVVGMLVRTPESVMTTSFVFLMPLTFASDIFVGLGTMPGWLQGVVRHNPVTHLANASRDLMHGRPAGADVSWTLLASLVIVAAVAPLAMRLYRKER,failed
8,MNAYYLLAIAVCAEVIATTSMKAVKGLSTPLPLILLITGYAIAFWMLILVMRTIPVGITYAIWSGMGIVMVSVAAYFIYGQKLDLPALLGMGMIVAGVAVIQLFSKTAGH,failed
9,MNCGRIRSLLQGGEATAGPVIYWMSRDQRVADNWALIHAQKLALARSAPLGVLFCLAPRFLGATARQYRFMLKGLEQVRAALNRLDIPFFLVTGDPKGAVAAFTRRHRVSYLVTDFDPLRVKREWKRQVAGEISIPFDEVDAHNIVPCWITSQRQEWGAYTIRPKIHRLLPDFMEPFPPLQRHPFPWQGALPSDAEWRETFTGMTLDESVPEVSWLASGEEAAQAALARFLEDGLAGYATRRNNPAVMGQSGLSPWLHFGQLSAQRVAQAAFAAAAPIESRDAFLEELIVRRELADNFCYYNDAYDRFDGFPEWAQRTLNRHRHDPRPQCYEHDVLEQGQTHDSLWNAAQLEMVRWGRMHGYLRMYWAKKLLEWTSSPEDALMIAIQLNDRYQLDGRDPNGYAGIAWSIGGVHDRPWAERPVFGTIRFMSRDGCRRKFDTDAYERRVIISPATCAGIALCK,failed
10,MNCIIAQSGGPTSVINASVYGLVKANKKLNLYENVYGGLNGIEGILNKKIINLSDLDELQLERFKNSPASGLGSCRYKLKPLSESEDEYLKLLDILNSLNIKAFFYVGGNDSMDTTAKLNAFAKAKNIDIKFFGIPKTIDNDLMHTDHTPGFGSAAKFISTAVLETYLDSKVYTNNGIFIIETMGRDTGWLAASGALATINGNKCADLVYLPERAFSVQSFLTDVARIFKEKKHVYIVASEGLKDENGKFLTETAPNDDSFGHAQLGGVGAYLKNLIIQASITHRVKSLELNTLQRCSMHASSKIDVNEAVMVGQAALEASINSEGGYMVAIRRDSSFPYKSSTFLIEADKIANNIKYFPSEWINEEGNNITEEGLLYLKPLISDFEDRDSLPLYHSFVL,failed
11,MNCKFEGSKVFFTSDTHFYHGNIIRFCNRPFKDVGMMNETIISNWNNTVGLDDIVFHLGDFCLGGSAEWTKILDRLNGKIYLILGNHDLKNLRQGYVDRFEHLAMQMHIEVNKQKIYLNHYPFLCFDGGYKDVWQLFGHVHTRNNNTGIDATRLQHLYPTQYDVGVDNNNFMPVSFAQVKTIIEKQIKQSKMEELEHHHHHH,not failed
12,MNDADSLQDYQRVRQQAIRSLFEIVEGSSEGTVIVDREARIVWINQRYAQRFGLADPAQAIGRPCESVIPGSLLREVVGSGKPILLDMMDSAKDPLVVMRLPIHDDAGEVIGAIGFALLDELRSLSPLVTRYLSMQRELASTRSQLQARQAKYSFSHFVGTSPVSLEVKRRARRGAASEAPVLLLGETGTGKELLAHAIHSASPRAHKAFVSVNAAAIPESLLEAEFFGTAPGAFTGAERKGRPGKLQVAQGGTLFLDEIGDMPLALQGKLLRVLQEKEFEAVGSNEVIRSDIRLVAATSIDLQQAMREGRFRADLYYRLNVLPIEIPPLRQRLDDLPALCESILDSLDHGRLHELGGDALALLARHAWPGNVRELRNVLERALLLADQRLLDAAALGAALGPLQPLPELPRAADDRPVGDFQQAREAFERDLIGRALAQSAGNVVEAAKRLGLGRSTLYKKIVALGMRLDSGTRLEIETN,failed
13,MNDFKGWETRSYLFLALMVGVQLVAFAINPSNWITLVGGLAGIICVNLIAQGKVSNYIFGLISAVIIGYFGLVTRVYAEVLLQSFYIIMDITGLYAWLRASEDGSGQVTEVKVLKGIQWLYAFFTWLLIGVAAYILLGFVNDAQQTLDAITFSVSATGMLLMIKRYQSQFVFWLLGNIFSILLWFRAGTHAGGDYAIFVMYCMYTFNSIFGMFNWLKIKNKMEKNR,failed
14,MNDHTAAIAAHFDQLAPNLDRWRRRNRTYYRDLEKLHRFWIPTGSRVLQVGSGLGDLLATVEPSFGIGIDVSPQAVAIAQQRHPQLQFHCLAAEELTPEAIGNPEPFDAIILTGVLSYLTDIQVVLEQLQAFCHPRTRLILGFHNFLWQPLLTAAEKVGQRSPQPPESWLGMQDVLNLLTLTGYEPIKQGLEHHHHHH,not failed
15,MNDNYEVFAIKYATYQQRRRNENFLPADEHDAGLMPLDYYVWLLKSPARTILVDTGFNPPEAAARNREQSRCPIEALRLLDVAPDDIDDVIITHLHYDHAGNLEKIPRARFHIQDKEVEFATGRCMCHAPLRFAYSPADVSNFIHKLYAGRVVFHDGAGVVAPGVEVLHVGGHTKGLQAVRVMTQRGWVVLASDASHFYENLEAARPFPLVADVAEMLDGFERLVRAAGSPSHVVPGHDPAVMTRYPTHPRDPQGIALLHLPTLA,failed
16,MNDPVDDDAEPTGNHADGVTVADLIAKVAGSDGATPRRSRRRRAAEPDPEPEFEAQAEPAPKPTPEPEILPVAPEPPASADPTEVLQAIRYDEYPGDHAGEYPGDHPDAAYAGAADPNLDAIFEPAFAPMPFAGVTAAHPDLDSCDTEIIPAVPAADEHADLPDTHRDSWRRRTRPQHAGTDDFDEPHRRHPNRKAMIVGRAAAAMIAALTLVLTGGAWQWQSSKNDSLNKVAALDLGSRDILDPNAQFGDENFLIVGMDSRFGENSQMGAGSTDDADGARSDTIMLVNIPASRERVVAVSFPRDLAITPMKCEPWDPETGTYGPIWDEASGTYGPDEVYTETKLNSAFAFGGPKCLVKVIQKISGLSVNRFMAVDFAGFSKMVDALGGVEVCSTTPLEDYELGTVLANAGRQIVDGHTALNYVRARQVTTEYNGDYGRIKRQQLFLSSLLRSLISKDTFFSLSKLNNVVNMFIADSYVDNIKTKDLVDLGQSVQGVNAGRITFVTIPTTGYADEWGNEQPRMDDVRALFDAIINDDPLPGEKNPDNTPVPGTPESTTNTAQAPQSTSPAPQPAHAAPAPGSAEMVDTVTTEPQQVTVKVSNSTGQSGLAATAAGELEQHGFNVTTPDDYPGPLDATTVFFSPGNEEAAATVASSFSNAAIERVAGLGDVVQVVLGTDFMAVNPPSPSGSAIQVKLVRGTSSTPTQLPEDLSVTNAADATCE,failed
17,MNDSAPRRVRVRAPELIGKGGWLNTGDKQYTLADLRGRIVVLDFWTFCCINCLHVLDELRELEEKHRDTVVIIGVHSPKFVHEAEHQAVVDAVERYGVEHPVLDDPELATWKQYAVRAWPTLVVIDPEGYVVAQHAGEGHAHAIAALVAELEAEHEAKGTLRRGDGPYVAPEPEPTVLRFPGKALLLPSGNFLVSDTTRHQLVELAADGESVVRRIGSGIRGFADGPADAASFSEPQGMTLLDEDVVVVADTVNHALRRLDLATGEVTTLAGTGRQWWQGSPASGPAREVDLSSPWDVAVFGGRVWIAMAGGAPAVDVRPGGGDGRGRGGHDERGAGRRTGLEHHHHHH,not failed
18,MNDTPDDTFVSGYLLYLLAASSEEASAQFHDHIRAQGLRVPEWRVLACLVDNDAMMITRLAKLSLMEQSRMTRIVDQMDARGLVTRVADAKDKRRVRVRLTDDGRALAESLVASARAHETRLLSALADTDAARIKGVLRTLLDVLDRPRESR,not failed
19,MNDVASTKSRVAAVSVVASATMAAAKFAVGIAIGSLALISEALHSSIDLVATIITWFVVRISDRPADDAHHYGHGKIESLSALGVIAMLYVLAGGILVEAYSRLREGAAPPTFSYLAFVILGVDIVVNLWRAWALHRTAVATKSQALAADALHFASDVLGSFAVIAGLALAAAGFHWGDAAAAIGVAVMISLLGLRLGRSTIQTLLDRAPEGVSDKAREAIGAVPGVVGVERLRARMVGPTHFIDALVEVPRTYPIDRIDEIKRKAQESMSEIFGDADLTFTAIPVARDNESVRERIMVIARNSGLAVHHVTVHDLGGHKLIVSIDLEVDGNMPLIEAHDIAHKLEDHIREDFGADVEVDTHIEPLEPELPQGSDAEPARVEEIRLALRRLTHDGAIHDVHSVRVRDTDAGEIVNFHCYADPSMSVISVHDHVDEIERKLRAKFPSVKRVISHAEPPNAD,failed
